Test results as given in patent publication EP4631959A2, “NOVEL MINIGASTRIN-DERIVED CHOLECYSTOKININ 2 RECEPTOR BINDING MOLECULES FOR IMAGING AND TARGETED RADIOTHERAPY” (priority 2022, dated 2024).
Where two headings read alike, the source gives them in different places. Starred links: 1 amine or outer side, 2 acyl side, 3 side chain; linkers in the order of their positions; H or OH if unused. Non-standard residues stand in square brackets, D forms with d. Residues, ends and D or L forms follow the SMILES beside them. *: point of attachment. DOTA = O=C(O)CN1CCN(CC(=O)O)CCN(CC(=O)*)CCN(CC(=O)O)CC1; d(γGlu) = O=C(O)[C@@H](CCC(=O)[*:2])N[*:1]; 1Nal = N[C@@H](Cc1cccc2ccccc12)C(=O)O; NMeNle = CCCC[C@H](NC)C(=O)O; PEG4 = NCCOCCOCCOCCOCCC(=O)O

What was measured:
CCK-2R [1] = assay: Competition studies in AR4-2J tumor-bearing CB17-SCID mice; assay type: in vivo; settings: co-administration of excess unlabeled competitor (40 nmol), 24 h p.i.
Description: For competition studies, the radiolabeled compound (approx. 1-5 MBq, 100 pmol) was co-injected with [^natLu]Lu-DOTA-MGS5 (40 nmol) into the tail vein of AR4-2J tumor-bearing CB17-SCID mice and sacrificed at 1 to 24 h post injection (n = 2). Selected organs were removed, weighted and measured in a γ-counter.

[2] = Biodistribution in AR4-2J tumor-bearing CB17-SCID mice; assay type: in vivo; settings: female, CB17-SCID, mouse, in vivo, iv, 100 pmol, total radioactivity
Description: (§1) All animal experiments were conducted in accordance with general animal welfare regulations in Germany (German animal protection act, in the edition of the announcement, dated May 18th, 2006, as amended by Article 280 of June 19th 2020, approval no. ROB-55.2-1-2532.Vet_02-18-109 by the General Administration of Upper Bavaria) and the institutional guidelines for the care and use of animals. CB17-SCID mice of both genders (Charles River Laboratories International Inc., Sulzfeld, Germany) were let to acclimate at the in-house animal facility at least for one week before inoculation was performed. To establish tumor xenografts, AR4-2J cells (5.0 × 10^6 cells per 200 µL) were suspended in a 1/1 mixture (v/v) of Dulbecco modified Eagle medium / Nutrition Mixture F-12 with Glutamax-I (1/1) and Cultrex® Basement Membrane Matrix Type 3 (Trevigen, Gaithersburg, MD, USA) and inoculated subcutaneously onto the right shoulder of 6-10 weeks old CB17-SCID mice (Charles River, Sulzfeld, Germany). Mice were used for experiments when tumors had grown to a volume of 150-300 mm^3 (1-2 weeks after inoculation). Exclusion criteria for animals from an experiment were either a weight loss higher than 20%, a tumor size above 1,500 mm^3, an ulceration of the tumor, a respiratory distress or a change of behavior. None of these criteria applied to any animal from the experiment. Neither randomization nor blinding was applied in the allocation of the experiments. Health status is SPF according to FELASA.
(§2) Approximately 1-5 MBq (100 pmol) of the radiolabeled minigastrin analogues were injected into the tail vein of AR4-2J tumor-bearing female CB17-SCID mice and sacrificed at 1 to 24 h post injection (n = 4-5). Selected organs were removed, weighted and measured in a γ-counter.

[3] = n-Octanol-PBS distribution coefficient (logD7.4); assay type: physicochemical; settings: for logD7.4 (n ≥ 5), ^67Ga-labeled: pH = 7.4, ^67Ga-labeled; for logD7.4 (n ≥ 5), ^177Lu-labeled: pH = 7.4, ^177Lu-labeled
Description: Approximately 1 MBq of the labeled tracer was dissolved in 1 mL of a 1/1 mixture (v/v) of phosphate buffered saline (PBS, pH = 7.4) and n-octanol in an Eppendorf tube (1.5 mL). After vigorous mixing of the suspension for 3 min at rt, the vial was centrifuged at 9,000 rpm for 5 min (Biofuge 15, Heraeus Sepatech, Osterode, Germany) and 200 µL aliquots of both layers were measured in a γ-counter. The experiment was repeated at least five times.

CCK-2R [4] = molecular target: T1, CCK-2R (Rattus norvegicus, UniProt P30553); assay: Determination of IC50: CCK-2R affinity on AR4-2J cells, competition with [^177Lu]Lu-DOTA-PP-F11N; assay type: binding; settings: AR4-2J cells
T1 construct: The CCK-2R expressing rat pancreatic tumor cells AR4-2J; host or cells: AR4-2J rat pancreatic tumor cells
T1 sequence (P30553 1-452): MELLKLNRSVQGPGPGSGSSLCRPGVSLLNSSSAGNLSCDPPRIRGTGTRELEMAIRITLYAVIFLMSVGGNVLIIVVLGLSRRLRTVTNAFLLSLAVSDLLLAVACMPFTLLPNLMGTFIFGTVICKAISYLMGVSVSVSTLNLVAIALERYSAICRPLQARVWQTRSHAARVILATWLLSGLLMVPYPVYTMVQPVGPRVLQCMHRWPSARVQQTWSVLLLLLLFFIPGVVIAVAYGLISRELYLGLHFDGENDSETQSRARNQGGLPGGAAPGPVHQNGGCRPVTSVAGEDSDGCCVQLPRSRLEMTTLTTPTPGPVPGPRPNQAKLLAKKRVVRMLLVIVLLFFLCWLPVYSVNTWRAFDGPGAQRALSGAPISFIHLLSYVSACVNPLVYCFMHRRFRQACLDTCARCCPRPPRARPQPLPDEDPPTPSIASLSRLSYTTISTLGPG
Procedure, shortened: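 Competitive displacement of 0.3 pmol/well [177Lu]Lu-DOTA-PP-F11N by compounds (10^-10 to 10^-4 M) on AR4-2J cells in BSA-supplemented medium, 3 h at 37 °C. Free label was collected from medium plus PBS rinse, and cell-bound label was recovered with 1 M NaOH, both measured by γ-counter. Each IC50 was determined twice, in triplicate.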

[5] = molecular target: T2, Human serum albumin (HSA) (Homo sapiens, UniProt P02768); assay: Determination of HSA binding on a Chiralpak HSA column; assay type: in vitro ADME
T2 construct: purchased Daicel, Tokyo, Japan H13H-2433
T2 sequence (P02768 25-609): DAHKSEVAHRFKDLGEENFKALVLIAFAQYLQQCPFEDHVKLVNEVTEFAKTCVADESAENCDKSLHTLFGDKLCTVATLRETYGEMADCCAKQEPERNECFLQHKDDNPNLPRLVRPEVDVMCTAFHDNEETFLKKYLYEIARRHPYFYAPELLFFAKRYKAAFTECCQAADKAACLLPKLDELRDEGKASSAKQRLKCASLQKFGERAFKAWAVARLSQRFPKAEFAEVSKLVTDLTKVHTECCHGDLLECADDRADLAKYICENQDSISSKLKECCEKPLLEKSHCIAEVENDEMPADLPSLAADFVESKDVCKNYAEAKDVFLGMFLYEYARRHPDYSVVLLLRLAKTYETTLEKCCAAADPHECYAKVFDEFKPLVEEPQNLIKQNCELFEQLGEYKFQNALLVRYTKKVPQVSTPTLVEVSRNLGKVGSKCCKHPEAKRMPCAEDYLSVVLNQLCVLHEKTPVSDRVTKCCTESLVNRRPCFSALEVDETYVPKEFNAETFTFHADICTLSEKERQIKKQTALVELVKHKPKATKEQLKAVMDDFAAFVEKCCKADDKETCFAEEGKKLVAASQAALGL
Procedure, shortened: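 Retention on an HSA column with a 50 mM NH4OAc (pH 6.9)/isopropanol gradient at 0.5 mL/min, rt; samples run at 0.5 mg/mL in A/B (1/1). Binding derived by non-linear regression against nine reference compounds spanning 13 to 99% HSA binding.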

[6] = test system: AR4-2J tumor-bearing CB17-SCID mice; assay: Biodistribution in AR4-2J tumor-bearing CB17-SCID mice; assay type: in vivo; settings: 24 h p.i.
Description: as §1, §2

[7] = ^natLu-labeled, read-out: IC50 [nM] (n = 3), ^natLu-labeled

SMILES | activity levels in stomach and tumor in competition studies (CCK-2R specificity) (CCK-2R [1]) | tissue to tissue ratio at 24 h [2] | tissue uptake at 24 h [2] [%ID/g] | logD7.4 (n ≥ 5), ^64Cu-labeled ([3]; pH = 7.4, ^64Cu-labeled) | logD7.4 (n ≥ 5), ^67Ga-labeled [3] | logD7.4 (n ≥ 5), ^67Ga-labeled ([3]; listed as [^67Ga]Ga-DOTA-CCK-66) | logD7.4 (n ≥ 5), ^177Lu-labeled [3] | IC50 (CCK-2R [4]; ^natCu-labeled, read-out: IC50 [nM] (n = 3), ^natCu-labeled) | IC50 (CCK-2R [4]; ^natGa-labeled, read-out: IC50 [nM] (n = 3), ^natGa-labeled) | IC50 (CCK-2R [4]; [7]) [nM] | HSA binding [%] [5] [%] | HSA binding [%], ^natCu-labeled [5] [%] | HSA binding [%], ^natGa-labeled [5] [%] | HSA binding [%], ^natLu-labeled [5] [%] | tissue uptake at 24 h ([2]; 24 h p.i., read-out: activity levels in the tumor) [%ID/g] | activity levels in the tumor, fold higher than those of [^177Lu]Lu-DOTA-PP-F11N [6]
CCCC[C@@H](C(=O)N[C@@H](CC(=O)O)C(=O)N[C@@H](Cc1cccc2ccccc12)C(N)=O)N(C)C(=O)[C@H](Cc1c[nH]c2ccccc12)NC(=O)CCOCCOCCOCCOCCNC(=O)CC[C@@H](NC(=O)CN1CCN(CC(=O)O)CCN(CC(=O)O)CCN(CC(=O)O)CC1)C(=O)O [DOTA-CCK-66, DOTA-γ-glu-(PEG)3-Trp-(N-Me)Nle-Asp-1-Nal-NH2] ({DOTA-d(γGlu)-PEG4}-W[NMeNle]D[1Nal]-NH2) | significantly decreased activity levels in both stomach and tumor | 2010 ± 469 | 8.56 ± 1.08 | −2.64 ± 0.04 | −3.01 ± 0.07 | < -3 | −2.60 ± 0.07 | 4.2 ± 0.5 | 5 ± 0.5 | 5.1 ± 0.5 | 61.5 | 61.5 | 53.8 | 69.1 | – | –
CCCC[C@H](NC(=O)[C@H](Cc1c[nH]c2ccccc12)NC(=O)CNC(=O)[C@H](Cc1ccc(O)cc1)NC(=O)[C@H](C)NC(=O)CC[C@@H](NC(=O)CC[C@@H](NC(=O)CC[C@@H](NC(=O)CC[C@@H](NC(=O)CC[C@@H](NC(=O)CC[C@@H](NC(=O)CC[C@@H](NC(=O)CC[C@@H](NC(=O)[C@@H](CNC(=O)c1ccc([Si](F)(C(C)(C)C)C(C)(C)C)cc1)NC(=O)CN1CCN(CC(=O)O)CCN(CC(=O)O)CCN(CC(=O)O)CC1)C(=O)O)C(=O)O)C(=O)O)C(=O)O)C(=O)O)C(=O)O)C(=O)O)C(=O)O)C(=O)N[C@@H](CC(=O)O)C(=O)N[C@@H](Cc1ccccc1)C(N)=O [DOTA-MG-SiFA-23, DOTA-dap(SiFA)-(γ-glu)8- Ala-Tyr-Gly-Trp-Nle-Asp-Phe-NH2] | specific | – | – | – | – | – | −2.69 ± 0.06 | – | – | 4.71 ± 0.62 | – | – | – | – | > 25 | more than 8 fold
